Laboratory results reported in patent US7026443.
Where two headings read alike, the source gives them in different places.

Assays:
HLA-A*0301 (human) [1] = target: HLA-A*0301 (human)
HLA-A*1101 (human) [2] = target: HLA-A*1101 (human)
HLA-A*1101 (human) [3] = target: HLA-A*1101 (human); remark: listed apart in the source
HLA-A*0201 (human) = assay: competition with 125I-labelled standard peptide for purified HLA-A*0201, gel filtration
HLA-A*0301 (human) [4] = target: HLA-A*0301 (human); remark: listed apart in the source
HLA-A*0301 (human) [5] = assay: competition with 125I-labeled standard peptide for purified HLA, gel filtration
HLA-A*1101 (human) [6] = assay: as above

B1: HPV45 E1 peptide … (position 270, 9 amino acids) (peptide)
peptide: ALLRYKCGK
modifications: not checked
HLA-A*0301 (human) [1]
  relative binding ratio (IC50 of standard peptide / IC50 of test peptide): 0.09
HLA-A*1101 (human) [2]
  relative binding ratio (IC50 of standard peptide / IC50 of test peptide): 0.14
HLA-A*1101 (human) [3]
  relative binding ratio (IC50 of standard peptide / IC50 of test peptide): 0.14

B2: HPV18 E7 peptide DLRAFQQL (position 82) (peptide)
peptide: DLRAFQQL
modifications: not checked
HLA-A*0201 (human)
  relative binding ratio (IC50 of standard peptide / IC50 of test peptide): 0.0001

B3: HPV18 E7 peptide … (position 82) (peptide)
peptide: DLRAFQQLFL
modifications: not checked
HLA-A*0201 (human)
  relative binding ratio (IC50 of standard peptide / IC50 of test peptide): 0.001

B4: HPV18 E7 peptide … (position 40) (peptide)
peptide: EIDGVNHQHL
modifications: not checked
HLA-A*0201 (human)
  relative binding ratio (IC50 of standard peptide / IC50 of test peptide): 0.0001

B5: HPV16 E1 peptide … (position 69, 9 amino acids) (peptide)
peptide: ALFTAQEAK
modifications: not checked
HLA-A*0301 (human) [1]
  binding affinity ratio (IC50 of standard peptide / IC50 of test peptide): 0.24
HLA-A*1101 (human) [2]
  binding affinity ratio (IC50 of standard peptide / IC50 of test peptide): 0.4
HLA-A*0301 (human) [4]
  relative binding ratio (IC50 of standard peptide / IC50 of test peptide) (ratio to standard peptide): 0.24

B6: HPV16 E1 peptide … (position 406, 9 amino acids) (peptide)
peptide: ATMCRHYKR
modifications: not checked
HLA-A*0301 (human) [1]
  binding affinity ratio (IC50 of standard peptide / IC50 of test peptide): 0.066
HLA-A*1101 (human) [2]
  binding affinity ratio (IC50 of standard peptide / IC50 of test peptide): 1.5
HLA-A*0301 (human) [4]
  relative binding ratio (IC50 of standard peptide / IC50 of test peptide) (ratio to standard peptide): 0.066

B7: HPV16 E1 peptide … (position 453, 9 amino acids) (peptide)
peptide: FMSFLTALK
modifications: not checked
HLA-A*0301 (human) [1]
  binding affinity ratio (IC50 of standard peptide / IC50 of test peptide): 0.13
HLA-A*1101 (human) [2]
  binding affinity ratio (IC50 of standard peptide / IC50 of test peptide): 0.21
HLA-A*0301 (human) [4]
  binding affinity ratio relative to the standard peptide (IC50 standard / IC50 test): 0.13

B8: HPV16 E1 peptide … (position 216, 9 amino acids) (peptide)
peptide: GVSFSELVR
modifications: not checked
HLA-A*0301 (human) [1]
  binding affinity ratio (IC50 of standard peptide / IC50 of test peptide): 0.0011
HLA-A*1101 (human) [2]
  binding affinity ratio (IC50 of standard peptide / IC50 of test peptide): 0.018

B9: HPV16 E1 peptide … (position 277, 9 amino acids) (peptide)
peptide: LLVRYKCGK
modifications: not checked
HLA-A*0301 (human) [1]
  binding affinity ratio (IC50 of standard peptide / IC50 of test peptide): 0.0043
HLA-A*1101 (human) [2]
  binding affinity ratio (IC50 of standard peptide / IC50 of test peptide): 0.0033

B10: HPV16 E1 peptide … (position 222, 9 amino acids) (peptide)
peptide: LVRPFKSNK
modifications: not checked
HLA-A*0301 (human) [5]
  relative binding ratio (IC50 of standard peptide / IC50 of test peptide): 0.07
HLA-A*1101 (human) [6]
  relative binding ratio (IC50 of standard peptide / IC50 of test peptide): 1.8

B11: HPV16 E1 peptide … (position 544, 9 amino acids) (peptide)
peptide: LVSMDVKHR
modifications: not checked
HLA-A*0301 (human) [5]
  relative binding ratio (IC50 of standard peptide / IC50 of test peptide): 0.0005
HLA-A*1101 (human) [6]
  relative binding ratio (IC50 of standard peptide / IC50 of test peptide): 0.0089

B12: HPV16 E1 peptide … (position 305, 9 amino acids) (peptide)
peptide: MMIEPPKLR
modifications: not checked
HLA-A*0301 (human) [5]
  relative binding ratio (IC50 of standard peptide / IC50 of test peptide): 0.001
HLA-A*1101 (human) [6]
  relative binding ratio (IC50 of standard peptide / IC50 of test peptide): 0.0086

B13: HPV16 E1 peptide … (position 454, 9 amino acids) (peptide)
peptide: MSFLTALKR
modifications: not checked
HLA-A*0301 (human) [5]
  relative binding ratio (IC50 of standard peptide / IC50 of test peptide): 0.087
HLA-A*1101 (human) [6]
  relative binding ratio (IC50 of standard peptide / IC50 of test peptide): 0.098

B14: HPV16 E1 peptide … (position 386, 9 amino acids) (peptide)
peptide: NSNASAFLK
modifications: not checked
HLA-A*0301 (human) [4]
  binding affinity ratio (IC50 of the standard peptide / IC50 of the test peptide): 0.0005
HLA-A*0301 (human) [5]
  relative binding ratio (IC50 of standard peptide / IC50 of test peptide): 0.0005
HLA-A*1101 (human) [6]
  relative binding ratio (IC50 of standard peptide / IC50 of test peptide): 0.011

B15: HPV16 E1 peptide … (position 419, 9 amino acids) (peptide)
peptide: QMSMSQWIK
modifications: not checked
HLA-A*0301 (human) [4]
  binding affinity ratio (IC50 of the standard peptide / IC50 of the test peptide): 0.0023
HLA-A*0301 (human) [5]
  relative binding ratio (IC50 of standard peptide / IC50 of test peptide): 0.0023
HLA-A*1101 (human) [6]
  relative binding ratio (IC50 of standard peptide / IC50 of test peptide): 0.026

B16: HPV16 E1 peptide … (position 109, 9 amino acids) (peptide)
peptide: RLKAICIEK
modifications: not checked
HLA-A*0301 (human) [5]
  relative binding ratio (IC50 of standard peptide / IC50 of test peptide): 0.084
HLA-A*1101 (human) [6]
  relative binding ratio (IC50 of standard peptide / IC50 of test peptide): 0.051

B17: HPV16 E1 peptide … (position 484, 9 amino acids) (peptide)
peptide: SLFGMSLMK
modifications: not checked
HLA-A*0301 (human) [5]
  relative binding ratio (IC50 of standard peptide / IC50 of test peptide): 0.72
HLA-A*1101 (human) [6]
  relative binding ratio (IC50 of standard peptide / IC50 of test peptide): 7.1

B18: HPV16 E1 peptide … (position 421, 9 amino acids) (peptide)
peptide: SMSQWIKYR
modifications: not checked
HLA-A*0301 (human) [5]
  relative binding ratio (IC50 of standard peptide / IC50 of test peptide): 0.69
HLA-A*1101 (human) [6]
  relative binding ratio (IC50 of standard peptide / IC50 of test peptide): 0.028

B19: HPV16 E1 peptide … (position 497, 9 amino acids) (peptide)
peptide: SVICFVNSK
modifications: not checked
HLA-A*0301 (human) [5]
  relative binding ratio (IC50 of standard peptide / IC50 of test peptide): 0.0005
HLA-A*1101 (human) [6]
  relative binding ratio (IC50 of standard peptide / IC50 of test peptide): 0.0002

B20: HPV16 E1 peptide … (position 315, 9 amino acids) (peptide)
peptide: TAAALYWYK
modifications: not checked
HLA-A*0301 (human) [5]
  relative binding ratio (IC50 of standard peptide / IC50 of test peptide): 0.78

B21: HPV16 E1 peptide … (position 72, 9 amino acids) (peptide)
peptide: TAQEAKQHR
modifications: not checked
HLA-A*0301 (human) [5]
  relative binding ratio (IC50 of standard peptide / IC50 of test peptide): 0.0005
HLA-A*1101 (human) [6]
  relative binding ratio (IC50 of standard peptide / IC50 of test peptide): 0.0025

B22: HPV18 E1 position 284 peptide … (peptide)
peptide: ALLRYKCGK
modifications: not checked
HLA-A*0301 (human) [5]
  binding affinity ratio (IC50 of standard peptide / IC50 of test peptide): 0.09
HLA-A*1101 (human) [6]
  binding affinity ratio (IC50 of standard peptide / IC50 of test peptide): 0.14

B23: HPV18 E1 position 413 peptide … (peptide)
peptide: ATMCKHYRR
modifications: not checked
HLA-A*1101 (human) [6]
  binding affinity ratio (IC50 of standard peptide / IC50 of test peptide): 0.28
